The source of these data is patent US20050124041A1 (YUHAN, published 2005).

The Kd is the free concentration of one partner at which half of the binding sites on the other are occupied at equilibrium, for simple one-to-one binding.

The target in this assay is T1, recombinant human tumor necrosis factor-α (Biosource PHC3011, Belgium) (human, UniProt P01375 77-233).
T1 construct: Bought recombinant protein; also called hTNFα; hTNF-α
Put plainly: competitive ELISA: TSK11 pre-incubated with soluble hTNFα, then added to hTNFα-coated wells; Scatchard plot analysis (Friguet method). The procedure:
In vitro binding affinity of TSK11 antibody against hTNFα was determined by ELISA assay. Here, each well was coated with 100 μl of recombinant hTNFα at a concentration of 4 μg/ml. Next, in Micro Tube (AXYGEN, U.S.A.) recombinant hTNFα was diluted with PBS solution supplemented with 0.02% bovine serum albumin to obtain the final concentration ranging from 5×10⁻⁹ M to 1×10⁻¹⁰ M. hTNFα diluents having various concentrations were mixed with 30 μg of TSK11 antibody and maintained at 37° C. for 2 hours. The mixed solution was distributed to the each well coated with the recombinant hTNFα, and incubated at 37° C. for 2 hours. Then, 100 μl of a horseradish peroxiadase substrate solution (Bio-rad, 172-1064) was added to the each well and kept at 37° C. for 3 minutes to induce color development. The absorbance of the each well was measured at 410 nm with ELISA reader (Dinatec inc., U.S.A.).
Apparent affinity was determined by calculating a reciprocal of the antigen concentration required in inhibiting 50% of the maximum binding in the competitive ELISA according to Scatchard plot analysis (Friguet E. et al., J. of Immunological Method 77: 305-319, 1985).
In general terms: An ELISA detects its analyte on a solid surface through an enzyme-linked reagent.

T1 sequence (P01375 77-233 limits assumed): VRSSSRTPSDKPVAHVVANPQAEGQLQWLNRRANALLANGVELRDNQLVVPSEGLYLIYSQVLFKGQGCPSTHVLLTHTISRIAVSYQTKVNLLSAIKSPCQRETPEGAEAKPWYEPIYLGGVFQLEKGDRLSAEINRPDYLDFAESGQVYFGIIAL

B1: monoclonal antibody produced from the hybridoma cell line TSK11 (antibody, IgG1, V domains shown)
VH: QVQLVQSGPELKKPGETVKISCKASGYTFTHYGMNWVKQAPGEGLKWMGWINTNTGEPRYDEEFKGRFAFSLETSASTAYLQINNLRREDTATYFCARYDSRGFDCWGQGTTLTVSS
VL: QIVLTQSPAIMSASLGERVTMTCTASSSISYNYFHWYQQRPGSSPKLWIYSSSNLASGVPPRISGSGSGTSYSLTISSMEAEDAATYYCHQYERSPWTFGGGTKLEIKR
notes: Mouse hybridoma antibody; also called TSK11 antibody
For B1, the Kd is 1.95 nM.
